Results as given in patent US20150218534A1, “MODIFIED DNA POLYMERASE” (TOYOBO CO., LTD., priority 2012, published 2015).

Assays:
Assay type in all cases: biochemical
[1] = system: bisulfite-treated human genomic DNA (MINT1, RAR, THBS1, MINT31); test: PCR amplification of bisulfite-treated DNA; conditions: 40 cycles (FIG. 12)
Protocol: (§1) Using bisulfite-treated DNA as a template and various primers, the difference in PCR amplification was compared. For comparison, KOD mutant (Y7A/V93K) and KOD (wild-type), each mixed with 1 μg of a KOD antibody per U of the enzyme, and Taq DNA polymerase mixed with an antibody (a mixture of equal amounts of Taq DNA polymerase (produced by Toyobo Co. Ltd.) and Anti-Taq High (produced by Toyobo Co. Ltd.)) were used.
The bisulfite-treated DNA used was human genomic DNA (produced by Roche) that had been treated with a MethylCode Bisulfite Conversion Kit of Invitrogen.
For PCR with the KOD mutant (Y7A/V93K) and PCR with the KOD, a buffer, MgSO4, and dNTPs included in KOD-Plus-Ver. 2 (produced by Toyobo Co. Ltd.) were used. 50 μl of individual reaction solutions containing 1× PCR buffer, 1.5 mM MgSO4, dNTPs (dATP, dTTP, dCTP, dGTP) in an amount of 0.2 mM, primers (SEQ ID NOs: 42 and 43 for amplification of MINT1; SEQ ID NOs: 44 and 45for amplification of RAR; SEQ ID NOs: 46 and 47 for amplification of THBS1; SEQ ID NOs: 48 and 49 for amplification of MINT31) in an amount of 15 pmol, 1 μl of bisulfite-treated DNA extract, and 1 U of each respective enzyme mixed with the antibody were used. PCR was performed using a GeneAmp PCR system 9700 (Applied Biosystems) on the following schedule: preliminary reaction at 94° C. for 2 minutes, followed by 40 cycles, each cycle consisting of 98° C. for 10 seconds, 55° C. for 15 seconds, and 68° C. for 1 minute.
For PCR with the Taq DNA polymerase, 50 μl of a reaction solution containing 1× buffer included in Blend Taq (product of Toyobo), dNTPs (dATP, […], dCTP, dGTP) in an amount of 0.2 mM, primers in an amount of 15 pmol (the same as above), 1 μl of bisulfite-treated DNA extract, and 2.5 U of the enzyme mixed with the antibody was used. […]
(§2) After the completion of each individual reaction, each of the resulting reaction solutions was analyzed using a DNA-1000 kit for MultiNA (produced by Shimadzu Corporation) to confirm amplified DNA fragments.

Psychrobacter DNA = test: PCR amplification using inosine-containing primers; conditions: primers 75 pmol or 150 pmol, 35 cycles (FIG. 11)
Protocol: as §1, with “inosine-containing” for “bisulfite-treated DNA as a template and various”, “mutants” for “mutant (Y7A/V93K)”
For PCR with the KOD mutants and PCR with the KOD, a buffer, MgSO4, and dNTPs included in KOD-Plus-Ver. 2 (produced by Toyobo Co. Ltd.) were used. 50 μl of individual reaction solutions containing 1× PCR buffer, 1.5 mM MgSO4, dNTPs (dATP, dTTP, dCTP, dGTP) in an amount of 0.2 mM, primers (SEQ ID NOs: 40 and 41) in an amount of 75 pmol or 150 pmol, 100 ng of Psychrobacter DNA, and 1 U of each respective enzyme mixed with the antibody were used. PCR was performed using a GeneAmp PCR system 9700 (Applied Biosystems) on the following schedule: preliminary reaction at 94° C. for 2 minutes, followed by 35 cycles, each cycle consisting of 98° C. for 10 seconds, 54° C. for 10 seconds, and 68° C. for 1 minute.
For PCR with the Taq DNA polymerase, 50 μl of a reaction solution containing 1× buffer included in Blend Taq (product of Toyobo), dNTPs (dATP, […], dCTP, dGTP) in an amount of 0.2 mM, primers in an amount of 75 pmol or 150 pmol (the same as above), 100 ng of Psychrobacter DNA, and 2.5 U of the enzyme mixed with the antibody was used. PCR was performed using a GeneAmp PCR system 9700 (Applied Biosystems) on the following schedule: preliminary reaction at 94° C. for 2 minutes, followed by 35 cycles, each cycle consisting of 94° C. for 30 seconds, 54° C. for 30 seconds, and 68° C. for 1 minute.
as §2

[2] = system: human genomic DNA (about 1.3 kb) with dUTP added; test: Evaluation of uracil (dUTP) sensitivity by PCR with dUTP added to the reaction; conditions: addition of 0.5 μM of dUTP
Protocol: The uracil sensitivity of the modified DNA polymerase of the present invention can be evaluated by PCR. For example, a dUTP solution is added at a final concentration of 0.5 μM to 200 μM to a common PCR reaction solution containing DNA as a template, a buffer, magnesium, dNTPs, primers, and a DNA polymerase to be evaluated, and thermal cycling is performed. After the reaction, the presence or absence of PCR products is confirmed by ethidium bromide-stained agarose electrophoresis, and the uracil sensitivity can be evaluated by the concentration of accepted dUTP. With a DNA polymerase having high uracil sensitivity, the extension reaction is inhibited by the addition of a small amount of dUTP, and PCR products cannot be confirmed. With a DNA polymerase having low uracil sensitivity, gene amplification by PCR can be confirmed without problem, even if a high concentration of dUTP is added. The modified DNA polymerase with low uracil sensitivity in the present invention refers to a DNA polymerase such that when optimum thermal cycling is performed using any primers and DNA as a template in a reaction buffer optimum for the enzyme, even if a high concentration of dUTP is added, an extension reaction is not inhibited and PCR products can be confirmed, compared to wild-type DNA polymerase, which has no mutation.
More specifically, 10× PCR buffer included in KOD-Plus-Ver. 2 (produced by Toyobo Co. Ltd.) or 10× PCR buffer included in Pfu DNA Polymerase (produced by Agilent) is used; dUTP (produced by Roche) is added to 50 μl of individual reaction solutions containing 1× PCR buffer, 1.5 mM MgSO4, dNTPs (dATP, dTTP, dCTP, and dGTP) in an amount of 0.2 mM, primers represented by SEQ ID NOs: 25 and 26 in an amount of 15 pmol for amplifying about 1.3 kb, 10 ng of human genomic DNA (produced by Roche), and 1 U of each respective enzyme, to final concentrations of 0.5, 5, 50, 100, and 200 μM. PCR is performed using a GeneAmp PCR system 9700 (Applied Biosystems) on the following schedule; preliminary reaction at 94° C. for 30 seconds, followed by 30 cycles, each cycle consisting of 98° C. for 10 seconds, 65° C. for 30 seconds, and 68° C. for 1 minute and 30 seconds. After the completion of each individual reaction, 5 μl of each of the resulting reaction solutions is subjected to agarose electrophoresis, followed by ethidium bromide staining. The uracil sensitivity can be evaluated by confirming amplified DNA fragments of about 1.3 kb under ultraviolet irradiation.
PCR was performed by the following method to evaluate uracil sensitivity. For PCR, components included in KOD-Plus-Ver. 2 (produced by Toyobo Co. Ltd.) were used. dUTP (produced by Roche) was added to 50 μl of individual reaction solutions containing 1× PCR buffer, 1.5 mM MgSO4, dNTPs (dATP, dTTP, dCTP, dGTP) in an amount of 0.2 mM, primers represented by SEQ ID NOs: 25 and 26 in an amount of 15 pmol for amplifying about 1.3 kb, 10 ng of human genomic DNA (produced by Roche), and 1 U of each respective enzyme, to final concentrations of 0.5, 5, 50, 100, and 200 μM. PCR was performed using a GeneAmp PCR system 9700 (produced by Applied Biosystems) on the following schedule: preliminary reaction at 94° C. for 30 seconds, followed by 30 cycles, each cycle consisting of 98° C. for 10 seconds, 65° C. for 30 seconds, and 68° C. for 1 minute and 30 seconds. After the completion of each individual reaction, 5 μl of each of the resulting reaction solutions was subjected to agarose electrophoresis, followed by ethidium bromide staining. Under ultraviolet irradiation, amplified DNA fragments of about 1.3 kb were confirmed. FIGS. 3, 4, 7, and 8 show the results.

B1: KOD (wild-type): wild-type DNA polymerase from Thermococcus kodakaraensis (KOD) (protein, listed as Thermococcus kodakaraensis)
chain: MILDTDYITEDGKPVIRIFKKENGEFKIEYDRTFEPYFYALLKDDSAIEEVKKITAERHGTVVTVKRVEKVQKKFLGRPVEVWKLYFTHPQDVPAIRDKIREHPAVIDIYEYDIPFAKRYLIDKGLVPMEGDEELKMLAFDIETLYHEGEEFAEGPILMISYADEEGARVITWKNVDLPYVDVVSTEREMIKRFLRVVKEKDPDVLITYNGDNFDFAYLKKRCEKLGINFALGRDGSEPKIQRMGDRFAVEVKGRIHFDLYPVIRRTINLPTYTLEAVYEAVFGQPKEKVYAEEITTAWETGENLERVARYSMEDAKVTYELGKEFLPMEAQLSRLIGQSLWDVSRSSTGNLVEWFLLRKAYERNELAPNKPDEKELARRRQSYEGGYVKEPERGLWENIVYLDFRSLYPSIIITHNVSPDTLNREGCKEYDVAPQVGHRFCKDFPGFIPSLLGDLLEERQKIKKKMKATIDPIERKLLDYRQRAIKILANSYYGYYGYARARWYCKECAESVTAWGREYITMTIKEIEEKYGFKVIYSDTDGFFATIPGADAETVKKKAMEFLKYINAKLPGALELEYEGFYKRGFFVTKKKYAVIDEEGKITTRGLEIVRRDWSEIAKETQARVLEALLKDGDVEKAVRIVKEVTEKLSKYEVPPEKLVIHEQITRDLKDYKATGPHVAVAKRLAARGVKIRPGTVISYIVLKGSGRIGDRAIPFDEFDPTKHKYDAEYYIENQVLPAVERILRAFGYRKEDLRYQKTRQVGLSAWLKPKGT
Which “amplification of bisulfite-treated DNA” value [1] does the source give for B1 here?
Its value is “not amplified”.

What about the “amplification with inosine-containing primers” value (Psychrobacter DNA) of the same molecule?
Its value is “not amplified”.

And the “PCR products on addition of dUTP” value [2]?
Its value is “no PCR products were confirmed”.
